Experimental data published in US20200115416A1 (REGENTS OF THE UNIVERSITY OF MINNESOTA, published 2020).
Read-outs that look alike come from different tables or passages of the source. Square brackets hold non-standard residues; d marks the D form. hPhe = N[C@@H](CCc1ccccc1)C(=O)O; Nle = CCCC[C@H](N)C(=O)O; Dap = NC[C@H](N)C(=O)O

Key:
Experiment in all cases: cell-based or functional assay
[1] = molecular target: T1, mouse melanocortin-1 receptor (mouse, UniProt Q01727 1-315)
[2] = molecular target: T2, mouse melanocortin-5 receptor (mouse, UniProt P41149 1-325)
T2 sequence (P41149 whole entry): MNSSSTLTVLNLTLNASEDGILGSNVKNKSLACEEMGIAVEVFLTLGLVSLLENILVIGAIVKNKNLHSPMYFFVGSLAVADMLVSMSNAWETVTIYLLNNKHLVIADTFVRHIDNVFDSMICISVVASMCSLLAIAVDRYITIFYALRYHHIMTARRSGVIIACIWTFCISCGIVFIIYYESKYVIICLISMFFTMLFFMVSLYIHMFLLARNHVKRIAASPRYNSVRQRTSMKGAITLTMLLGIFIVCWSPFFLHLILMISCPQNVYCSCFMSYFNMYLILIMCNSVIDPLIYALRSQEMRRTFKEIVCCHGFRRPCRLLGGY

[3] = molecular target: T3, mouse melanocortin-4 receptor (mouse, UniProt P56450 1-332)
T3 sequence (P56450 whole entry): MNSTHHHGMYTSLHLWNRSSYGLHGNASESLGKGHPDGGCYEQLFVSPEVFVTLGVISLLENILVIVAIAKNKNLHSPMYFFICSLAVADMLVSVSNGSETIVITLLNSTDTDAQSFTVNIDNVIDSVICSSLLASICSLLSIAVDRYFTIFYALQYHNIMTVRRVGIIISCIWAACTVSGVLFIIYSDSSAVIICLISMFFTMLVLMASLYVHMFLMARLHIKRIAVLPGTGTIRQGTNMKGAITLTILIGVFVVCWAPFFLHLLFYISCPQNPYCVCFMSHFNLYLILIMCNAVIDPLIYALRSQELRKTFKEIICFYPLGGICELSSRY

[4] = molecular target: T4, mouse melanocortin-3 receptor (mouse, UniProt P33033 1-323)
T4 sequence (P33033 whole entry): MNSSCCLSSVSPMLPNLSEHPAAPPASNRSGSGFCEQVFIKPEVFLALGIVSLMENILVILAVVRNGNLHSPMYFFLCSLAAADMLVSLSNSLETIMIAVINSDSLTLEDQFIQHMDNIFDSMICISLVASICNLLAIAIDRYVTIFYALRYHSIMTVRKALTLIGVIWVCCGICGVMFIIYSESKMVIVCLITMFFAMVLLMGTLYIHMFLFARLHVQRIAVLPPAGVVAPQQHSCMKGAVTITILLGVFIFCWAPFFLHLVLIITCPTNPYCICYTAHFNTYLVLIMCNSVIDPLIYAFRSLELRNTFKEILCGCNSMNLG

[5] = molecular target: T2, mouse melanocortin-5 receptor; remark: listed apart in the source
[6] = molecular target: T1, mouse melanocortin-1 receptor; remark: listed apart in the source
[7] = molecular target: T4, mouse melanocortin-3 receptor; remark: listed apart in the source
[8] = molecular target: T2, mouse melanocortin-5 receptor; remark: listed apart in the source
[9] = molecular target: human melanocortin-4 receptor (human, UniProt P32245 1-332)
human melanocortin-4 receptor, sequence (P32245 whole entry): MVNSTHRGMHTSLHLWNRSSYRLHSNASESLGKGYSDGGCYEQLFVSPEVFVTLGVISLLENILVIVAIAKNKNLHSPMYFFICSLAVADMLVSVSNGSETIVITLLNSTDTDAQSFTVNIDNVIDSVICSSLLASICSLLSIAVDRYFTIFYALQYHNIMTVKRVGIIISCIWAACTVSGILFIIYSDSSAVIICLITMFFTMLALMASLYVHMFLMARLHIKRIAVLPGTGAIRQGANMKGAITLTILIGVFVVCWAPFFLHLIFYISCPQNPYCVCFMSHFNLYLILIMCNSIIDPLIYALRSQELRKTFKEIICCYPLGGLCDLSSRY

[10] = molecular target: T3, mouse melanocortin-4 receptor; remark: listed apart in the source
[11] = molecular target: T1, mouse melanocortin-1 receptor; remark: listed apart in the source
[12] = molecular target: T4, mouse melanocortin-3 receptor; remark: listed apart in the source

T1 sequence (Q01727 whole entry): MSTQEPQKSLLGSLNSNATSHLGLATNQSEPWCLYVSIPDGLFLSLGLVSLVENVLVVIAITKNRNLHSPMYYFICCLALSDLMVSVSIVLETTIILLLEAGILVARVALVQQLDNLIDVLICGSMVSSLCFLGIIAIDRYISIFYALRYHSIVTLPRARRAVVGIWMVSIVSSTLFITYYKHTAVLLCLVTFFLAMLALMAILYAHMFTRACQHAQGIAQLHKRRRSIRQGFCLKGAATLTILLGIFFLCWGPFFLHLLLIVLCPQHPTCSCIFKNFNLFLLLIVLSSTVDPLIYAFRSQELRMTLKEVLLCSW

Row | agonist EC50 (cAMP AlphaScreen) [1] [µM] | EC50 (cAMP AlphaScreen, inverse agonist) [2] [µM] | antagonist pA2 (Schild, agonist NDP-MSH) [3] | antagonist pA2 (Schild, agonist NDP-MSH) [4] | further results | Binder
1 | > 100 | > 100 | 9.6 | 7.1 | – | cyclo(PRFFRS[Nle][dP]) (SMILES CCCC[C@@H]1NC(=O)[C@H](CO)NC(=O)[C@H](CCCNC(=N)N)NC(=O)[C@H](Cc2ccccc2)NC(=O)[C@H](Cc2ccccc2)NC(=O)[C@H](CCCNC(=N)N)NC(=O)[C@@H]2CCCN2C(=O)[C@H]2CCCN2C1=O) [c[Pro-Arg-Phe-Phe-Arg-Ser-Nle-DPro]]
2 | > 100 | > 100 | 8.8 | 7.5 | – | cyclo(PRF[hPhe]RA[Nle][dP]) (SMILES CCCC[C@@H]1NC(=O)[C@H](C)NC(=O)[C@H](CCCNC(=N)N)NC(=O)[C@H](CCc2ccccc2)NC(=O)[C@H](Cc2ccccc2)NC(=O)[C@H](CCCNC(=N)N)NC(=O)[C@@H]2CCCN2C(=O)[C@H]2CCCN2C1=O) [c[Pro-Arg-Phe-hPhe-Arg-Ala-Nle-DPro]]
3 | – | – | – | – | inverse agonist, % change from basal cAMP at 100 µM [5]: -40% | cyclo(PRFFNAY[dP]) [c[Pro-Arg-Phe-Phe-Asn-Ala-Tyr-DPro]]
4 | > 100 | > 100 | 9.1 | 6.7 | – | cyclo(PRF[hPhe][Dap]A[Nle][dP]) (SMILES CCCC[C@@H]1NC(=O)[C@H](C)NC(=O)[C@H](CN)NC(=O)[C@H](CCc2ccccc2)NC(=O)[C@H](Cc2ccccc2)NC(=O)[C@H](CCCNC(=N)N)NC(=O)[C@@H]2CCCN2C(=O)[C@H]2CCCN2C1=O) [c[Pro-Arg-Phe-hPhe-Dap-Ala-Nle-DPro]]
5 | – | – | – | – | agonist EC50 (cAMP AlphaScreen) [6]: > 100 µM; agonist EC50 (cAMP AlphaScreen) [7]: > 100 µM; antagonist pA2 (Schild, agonist NDP-MSH) [7]: 6.7; inverse agonist apparent potency [8]: 0.11 µM; inverse agonist, % decrease from basal cAMP [8]: -10%; inverse agonist, % decrease from basal signal [9]: -30% | PRFFXAFP (head-to-tail cyclic; DDap at 5; DPro at 8) [c[Pro-Arg-Phe-Phe-DDap-Ala-Phe-DPro]]
6 | – | > 100 | 8.6 | 6.5 | % receptor stimulation at 100 µM (cAMP AlphaScreen) [1]: 40% | cyclo(PRF[hPhe]NSF[dP]) (SMILES N=C(N)NCCC[C@@H]1NC(=O)[C@@H]2CCCN2C(=O)[C@H]2CCCN2C(=O)[C@H](Cc2ccccc2)NC(=O)[C@H](CO)NC(=O)[C@H](CC(N)=O)NC(=O)[C@H](CCc2ccccc2)NC(=O)[C@H](Cc2ccccc2)NC1=O) [c[Pro-Arg-Phe-hPhe-Asn-Ser-Phe-DPro]]
7 | – | > 100 | 8.9 | 8 | % receptor stimulation at 100 µM (cAMP AlphaScreen) [1]: 25% | cyclo(PRF[hPhe]RAF[dP]) (SMILES C[C@@H]1NC(=O)[C@H](CCCNC(=N)N)NC(=O)[C@H](CCc2ccccc2)NC(=O)[C@H](Cc2ccccc2)NC(=O)[C@H](CCCNC(=N)N)NC(=O)[C@@H]2CCCN2C(=O)[C@H]2CCCN2C(=O)[C@H](Cc2ccccc2)NC1=O) [c[Pro-Arg-Phe-hPhe-Arg-Ala-Phe-DPro]]
8 | – | – | – | – | agonist EC50 (cAMP AlphaScreen) [6]: > 100 µM; agonist EC50 (cAMP AlphaScreen) [7]: > 100 µM; antagonist pA2 (Schild, agonist NDP-MSH) [7]: < 5.5; inverse agonist apparent potency [8]: 0.16 µM; inverse agonist, % decrease from basal cAMP [8]: -20%; inverse agonist, % decrease from basal signal [9]: -15% | PRFFXAFP (head-to-tail cyclic; Abu at 5; DPro at 8) [c[Pro-Arg-Phe-Phe-Abu-Ala-Phe-DPro]]
9 | 1.2 | – | 8.1 | 6.1 | agonist EC50 (cAMP AlphaScreen) [10]: > 100 µM; antagonist pA2 (Schild, agonist NDP-MSH) [10]: 8.2; agonist EC50 (cAMP AlphaScreen) [6]: > 100 µM; agonist EC50 (cAMP AlphaScreen) [7]: > 100 µM; antagonist pA2 (Schild, agonist NDP-MSH) [7]: 6.2; inverse agonist, % change from basal cAMP at 100 µM [8]: -30%; inverse agonist efficacy, % relative to basal [2]: -14% | cyclo(PRFFNSF[dP]) (SMILES N=C(N)NCCC[C@@H]1NC(=O)[C@@H]2CCCN2C(=O)[C@H]2CCCN2C(=O)[C@H](Cc2ccccc2)NC(=O)[C@H](CO)NC(=O)[C@H](CC(N)=O)NC(=O)[C@H](Cc2ccccc2)NC(=O)[C@H](Cc2ccccc2)NC1=O) [c[Pro-Arg-Phe-Phe-Asn-Ser-Phe-DPro]]
10 | – | – | – | – | agonist EC50 (cAMP AlphaScreen) [11]: 1.2 µM; % maximal NDP-MSH response at 100 µM (cAMP AlphaScreen) [12]: 35% | cyclo(P[dR]F[dF]NAF[dP]) [c[Pro-DArg-Phe-DPhe-Asn-Ala-Phe-DPro]]
11 | > 100 | > 100 | 9.1 | 7.5 | – | cyclo(PRFFRA[Nle][dP]) (SMILES CCCC[C@@H]1NC(=O)[C@H](C)NC(=O)[C@H](CCCNC(=N)N)NC(=O)[C@H](Cc2ccccc2)NC(=O)[C@H](Cc2ccccc2)NC(=O)[C@H](CCCNC(=N)N)NC(=O)[C@@H]2CCCN2C(=O)[C@H]2CCCN2C1=O) [c[Pro-Arg-Phe-Phe-Arg-Ala-Nle-DPro]]
12 | 0.4 | > 100 | 9.5 | 7.9 | – | cyclo(PRF[hPhe]RS[Nle][dP]) (SMILES CCCC[C@@H]1NC(=O)[C@H](CO)NC(=O)[C@H](CCCNC(=N)N)NC(=O)[C@H](CCc2ccccc2)NC(=O)[C@H](Cc2ccccc2)NC(=O)[C@H](CCCNC(=N)N)NC(=O)[C@@H]2CCCN2C(=O)[C@H]2CCCN2C1=O) [c[Pro-Arg-Phe-hPhe-Arg-Ser-Nle-DPro]]
13 | – | – | – | – | inverse agonist, % change from basal cAMP at 100 µM [5]: -35% | cyclo(PRFFNAL[dP]) [c[Pro-Arg-Phe-Phe-Asn-Ala-Leu-DPro]]
14 | > 100 | > 100 | 9.5 | 6.7 | – | cyclo(PRF[hPhe][Dap]S[Nle][dP]) (SMILES CCCC[C@@H]1NC(=O)[C@H](CO)NC(=O)[C@H](CN)NC(=O)[C@H](CCc2ccccc2)NC(=O)[C@H](Cc2ccccc2)NC(=O)[C@H](CCCNC(=N)N)NC(=O)[C@@H]2CCCN2C(=O)[C@H]2CCCN2C1=O) [c[Pro-Arg-Phe-hPhe-Dap-Ser-Nle-DPro]]
15 | – | > 100 | 8.8 | 7.7 | % receptor stimulation at 100 µM (cAMP AlphaScreen) [1]: 30% | cyclo(PRF[hPhe]RSF[dP]) (SMILES N=C(N)NCCC[C@@H]1NC(=O)[C@H](CCc2ccccc2)NC(=O)[C@H](Cc2ccccc2)NC(=O)[C@H](CCCNC(=N)N)NC(=O)[C@@H]2CCCN2C(=O)[C@H]2CCCN2C(=O)[C@H](Cc2ccccc2)NC(=O)[C@H](CO)NC1=O) [c[Pro-Arg-Phe-hPhe-Arg-Ser-Phe-DPro]]
16 | > 100 | > 100 | 9.2 | 6.3 | – | cyclo(PRF[hPhe]NS[Nle][dP]) (SMILES CCCC[C@@H]1NC(=O)[C@H](CO)NC(=O)[C@H](CC(N)=O)NC(=O)[C@H](CCc2ccccc2)NC(=O)[C@H](Cc2ccccc2)NC(=O)[C@H](CCCNC(=N)N)NC(=O)[C@@H]2CCCN2C(=O)[C@H]2CCCN2C1=O) [c[Pro-Arg-Phe-hPhe-Asn-Ser-Nle-DPro]]
17 | – | – | – | – | inverse agonist apparent potency [5]: 0.78 µM; inverse agonist, % decrease from basal cAMP [5]: -20% | PRFFNAXP (head-to-tail cyclic; Cha at 7; DPro at 8) [c[Pro-Arg-Phe-Phe-Asn-Ala-Cha-DPro]]
18 | – | – | – | – | inverse agonist apparent potency [5]: 0.15 µM; inverse agonist, % decrease from basal cAMP [5]: -20% | cyclo(PRFFNAW[dP]) [c[Pro-Arg-Phe-Phe-Asn-Ala-Trp-DPro]]
19 | – | – | – | – | inverse agonist apparent potency [5]: 0.29 µM; inverse agonist, % decrease from basal cAMP [5]: -20% | cyclo(PRFFNA[hPhe][dP]) [c[Pro-Arg-Phe-Phe-Asn-Ala-hPhe-DPro]]
20 | – | > 100 | 9.2 | 7.2 | % receptor stimulation at 100 µM (cAMP AlphaScreen) [1]: 40% | cyclo(PRF[hPhe][Dap]SF[dP]) (SMILES N=C(N)NCCC[C@@H]1NC(=O)[C@@H]2CCCN2C(=O)[C@H]2CCCN2C(=O)[C@H](Cc2ccccc2)NC(=O)[C@H](CO)NC(=O)[C@H](CN)NC(=O)[C@H](CCc2ccccc2)NC(=O)[C@H](Cc2ccccc2)NC1=O) [c[Pro-Arg-Phe-hPhe-Dap-Ser-Phe-DPro]]
21 | > 100 | > 100 | 9 | 7.1 | – | cyclo(PRFFRSF[dP]) (SMILES N=C(N)NCCC[C@@H]1NC(=O)[C@H](Cc2ccccc2)NC(=O)[C@H](Cc2ccccc2)NC(=O)[C@H](CCCNC(=N)N)NC(=O)[C@@H]2CCCN2C(=O)[C@H]2CCCN2C(=O)[C@H](Cc2ccccc2)NC(=O)[C@H](CO)NC1=O) [c[Pro-Arg-Phe-Phe-Arg-Ser-Phe-DPro]]
22 | – | – | – | – | inverse agonist, % change from basal cAMP at 100 µM [5]: -35%; partial agonist, % receptor stimulation [1]: 50% | cyclo(PRFFNA[Nle][dP]) [c[Pro-Arg-Phe-Phe-Asn-Ala-Nle-DPro]]
23 | – | – | – | – | inverse agonist, % change from basal cAMP at 100 µM [5]: -40% | cyclo(PRFFNAK[dP]) [c[Pro-Arg-Phe-Phe-Asn-Ala-Lys-DPro]]
